Here are results for 1 molecule from US20240301061A1 (BEIGENE SWITZERLAND, published 2024).

Assay [1] addresses T1, human claudin 6 (CLDN6) (human, UniProt P56747 1-220).
T1 construct: also called human CLDN6; hCLDN6
T1 sequence: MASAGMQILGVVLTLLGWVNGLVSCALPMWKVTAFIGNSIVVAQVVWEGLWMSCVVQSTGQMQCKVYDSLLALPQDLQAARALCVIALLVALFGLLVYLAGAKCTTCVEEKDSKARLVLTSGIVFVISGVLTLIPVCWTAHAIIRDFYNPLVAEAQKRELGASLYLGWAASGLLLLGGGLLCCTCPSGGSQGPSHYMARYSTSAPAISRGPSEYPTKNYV
As to the kind of experiment: flow cytometry, HEK293-hCLDN6 cells; ratio to chBG87P. In general terms: In flow cytometry, cells or beads pass a laser one at a time.

The target in assay [2] is T1, human claudin 6 (CLDN6). As to the kind of experiment: flow cytometry, PA-1 cells. The method, then: (§1) For affinity determination, CLDN6 over-expressing HEK293T cells and cancer cell line PA-1 which express high levels of human CLDN6 were used to evaluate the binding activity of BG87P related engineering variants. Live cells were seeded in 96-well plate, and were incubated with a series of dilutions of chBG87P and engineered variants thereof. Goat anti-human IgG was used as second antibody to detect antibody binding to the cell surface. EC50 values for dose-dependent binding to CLDN6 expressing cell lines were determined by fitting the dose-response data to the four-parameter logistic model with GraphPad Prism. Cell binding activity of 1st round of BG87P humanization variants against HEK293T/human CLDN6 were compared to chBG87P and shown in FIG. 1A.

In assay [3] the target is T2, cyno CLDN6 (cyno).
T2 construct: whole, on cells; also called cynomolgus CLDN6
As to the kind of experiment: flow cytometry, HEK293T-cyno-CLDN6 cells; ratio to chBG87P.

Assay [4] deals with T1, human claudin 6 (CLDN6). As to the kind of experiment: flow cytometry, PA-1 cells; ratio to chBG87P. The method, then:
as §1

The target of assay [5] is T1, human claudin 6 (CLDN6). The experiment in a line: flow cytometry, HEK293T-hCLDN6 cells; ratio to chBG87P.
Assay [6] deals with T1, human claudin 6 (CLDN6). As to the kind of experiment: flow cytometry, HEK293T-human CLDN6 cells; ratio to chBG87P. As for the experimental part: as §1

B1: BG87P-21 (antibody, V domains shown)
VH: QVQLVQSGAEVKKPGASVKVSCKASGYSFTDYHINWVRQAPGQRLEWMGWIYPGSGYTKYNEKFKGRVTITRDTSASTAYMELSSLRSEDTAVYYCARSGIYHYVSSYYFDHWGKGTTVTVSS
VL: DIQMTQSPSTLSASVGDRVTITCKASQDVGTAVAWYQQKPGKAPKLLIYWASTRHTGVPSRFSGSGSGTEFTLTISSLQPDDFATYYCQQYSSYTFGGGTKVEIK
notes: 2nd round humanized variant
Take B1: in assay [1], the “FACS-Ec50 ratio to BG87P” value amounted to 0.91. Moreover, the “Top MFI Mean” value in assay [2] is 76500 MFI. Also, the “FACS Emax ratio to BG87P” value stood at 0.8 in assay [3] and 0.66 in assay [5]. In addition, the entries for the “Emax ratio to BG87P” value in assay [4] and in assay [6] were 0.61 and 0.78, respectively.
